{
  "source": "the nanobody polyreactivity screen of Harvey et al. (2022)",
  "data": [
    {"test": "yeast display, Sf9 membrane polyspecificity reagent, FACS + sequencing; frameworks hold sequencing errors", "summary_of_the_method": "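Using colony PCR, genes from sorted yeast display clones were amplified, then sequenced on MiSeq at 2 × 250 and filtered by CDR length. The clones had been stained with 10% biotinylated, detergent-solubilized Sf9 membrane reagent for 1 hour at 4 °C and sorted by FACS into low and high (top ~1%) gates on anti-HA and streptavidin fluorescence. Polyreactivity labels come from the gate of origin.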", "values": [
      {"sequence": "QVQLVESGRGLVQAGGSLRLSCAASGRIFYYNDMGWYRQAPGKERELVASITGSGGSTYYADSVKGRFTISRDNAKNTVYLQMNSLKPEDTAVYYCAKREYLYPYYYVAKYDYWGQGTQVTVSS", "polyreactivity (PSR sort gate)": "low polyreactivity"},
      {"sequence": "QVQLVESGRGLVQAGGSLRLSCAASGRIYRRNAIGWYRQAPGKERELVAAITWSDGSTYYADSVKGRFTISRDNAKNTVYFQMNSLKPEDTAVYYCNKVTRSPSEYDYWGQGTQVTVSS", "polyreactivity (PSR sort gate)": "high polyreactivity"},
      {"sequence": "QVQLVESGRGLVQAGGSLRLSCAASGRTFAVSTMGWYRKAAGQERELVATISWSGGSTYYADSVKGRFTISRDNAKNTVYLQMNSLKPEDTAVYFCNADFTWGSYERDYWGQGTQGTVSS", "polyreactivity (PSR sort gate)": "high polyreactivity"},
      {"sequence": "QVQLVESGRGLVQAGGSLRLSCAASGRTFNWYAKGWYRQAPGKERELVAAISSGGSTYYADSVKGRFTISRDNAKNTVYLQMNSLKPEDTAVYYCAAVTPSGAHRSAYHPISDYWGQGTQVTVSS", "polyreactivity (PSR sort gate)": "low polyreactivity"},
      {"sequence": "QVQLVESGRGLVQAGGSLRLSCAASGRTVWVYTMGWYRQAPGKERELVAAITLSGGSTYYADSVKGRFTISRDNAKNTVYLQMNSLKPEDTAVYYSNARPYYYTYRHSQYYYWGQGTQVTVSS", "polyreactivity (PSR sort gate)": "high polyreactivity"},
      {"sequence": "QVQLVESGRGLVQAGGSLRLSCAASGSIFNCYDMGWYRQAPGKERELVADIRSAGSTYYADSVKGRFTISRDNAKNTVYLQMNSLKPEDTAVNYCAAEAPVQPFYVFNTGIYELDYWGQGTQVTVSS", "polyreactivity (PSR sort gate)": "low polyreactivity"},
      {"sequence": "QVQLVESGRGLVQAGGSLRLSCAASGSIFQKYTMGWYRQAPGKERELVAGINTSGANTYYADSVKGRFTISRDNAKNTVYLQMNSLKPEDTAVYYCAAARPWFAYYYWGQGTQVTVSS", "polyreactivity (PSR sort gate)": "high polyreactivity"},
      {"sequence": "QVQLVESGRGLVQAGGSLRLSCAASGSIFRGNAMGWYRQAPGKERELVAAMTKRGGSTYYADSGKGRFTISRDNAKNTDKFQMNSLKPEDTAVYYFAAKPSYRYYKSYDYWGQGTQVTVSS", "polyreactivity (PSR sort gate)": "high polyreactivity"},
      {"sequence": "QVQLVESGRGLVQAGGSLRLSCAASGSIFSGNAMGWYRQAPGKERELVAAISRSGGSTYYADSVKGRFTISRDNAKNTVYLQLYSLKPEDTAVYYCAAYRTHGPPRALRFDYWGQGTLVTVSS", "polyreactivity (PSR sort gate)": "high polyreactivity"},
      {"sequence": "QVQLVESGRGLVQAGGSLRLSCAASGSTFLGNAMGWYREAPGKARELVAAITSAGSTYYADSVKGRFTISRDNAKNTVYLQMNSLKPEDTAVYYCNADSTWGGYGFDDWGQGTQVTVSS", "polyreactivity (PSR sort gate)": "low polyreactivity"},
      {"sequence": "QVQLVESGRGLVQAGGSLRLSCAASGSTFVYNVMGWYRQAHGKERELVAAIRRRGGSTYADSVKGRFTITRDNAKNTVYLQMNSLNPEVTAVYYCAAGIPRYWYAGHYDYWGQGTKVTVSS", "polyreactivity (PSR sort gate)": "low polyreactivity"},
      {"sequence": "QVQLVESGRGLVQAGGSLRLSCAASGSTLATYTMGWYRQAPGKERELVPAISFGGSTYYADSVKGRFTISRDNAKNTVYLQMNSLKPEDTAVYYCAVYGDSYWGAYYYSDGYWGQGTQVTVSS", "polyreactivity (PSR sort gate)": "low polyreactivity"},
      {"sequence": "QVQLVESGRGLVQAGGSLRLSCAASGYTFSNYGMGWYRQAPGKERELVAGIILGGSSTYYADSVKGRFTISRDNAKNTVYLQMNSLKPEDTAVYYCAAYVTGRYDWGQGTQVTVSS", "polyreactivity (PSR sort gate)": "high polyreactivity"},
      {"sequence": "QVQLVESGRGLVQAGGSLRLSCAATGLTFNQYAMGWYRQAPGKERELVAAITRVGRTYYADSVKGRFTISRDNAKNSVYLQMNSLKPEDTAVYYWGYPDVAERRGSYYWGQGTQVTVSS", "polyreactivity (PSR sort gate)": "high polyreactivity"},
      {"sequence": "QVQLVESGRGLVQAGGSLRLSCAPSGRISAQYTMGWYRQAPGKERELVAAITWSGTNTYYADSVKGRFTISRDNAKNTVYLQMNSLKPEDTAVYYCATAVYLVIFEYDYWGQGTQVTVSS", "polyreactivity (PSR sort gate)": "low polyreactivity"},
      {"sequence": "QVQLVESGRGLVQAGGSLRLSCASSGFIFGPYAMGWYRQAPGKERELVAAISRRGGSTYYADSVKGRFTISRDNAKNTVYLQMNSLKPEDTAVYYCATRISQSYYNYGYWGQGTQGTVSS", "polyreactivity (PSR sort gate)": "high polyreactivity"},
      {"sequence": "QVQLVESGRGLVQAGGSLRLTGAASGRIFGLYAMGWYRHAPGKERELVAAISRRGGTTYYADSVQGRFTISRDNAKNTVDLQMNSLKPEDTAVYYCAAATVYLSWYYWGQGTQVTVSS", "polyreactivity (PSR sort gate)": "high polyreactivity"},
      {"sequence": "QVQLVESGRGLVQAGGSLSLSCAASGSILYIYAMVWNIQAPGKERELVDSINSGGSTNYADSVKGRFTISRDNAKNTVYLEMNSLIPEDTAVYYCAKSIGNPPQGFKDFDYWGQGTLVTVSS", "polyreactivity (PSR sort gate)": "low polyreactivity"},
      {"sequence": "QVQLVESGRGLVQEGGSLRLSCAASGSTFEPYAMGWYRQAPGKERELVAAITLTAGSTYYADSVKGRFTISRDNAKNTVYLQRNSLKPEDTAVYYCAAEFWLVEDDYWGQGTQVTVSS", "polyreactivity (PSR sort gate)": "low polyreactivity"},
      {"sequence": "QVQLVESGRGLVRAGGSLPFSCAASAGNFMRYAMGWYRQAPGKERELVAAITANGGSTYYADSVKGRFTISRDNAKNTVYLQMNSLKPEDTAVYYCNADTGVRSYRRDYWGQGSQVTVSS", "polyreactivity (PSR sort gate)": "low polyreactivity"},
      {"sequence": "QVQLVESGRRLVQAGGSLRLSCAASGRIFPGNAMGWYRQAPGKERELVAAMSYGGGSTYYADSVKGRFTISRDNAKNTVYLQMNSLKPEDTAVYYCAARYRGSRFDYWGQGTQVTVSS", "polyreactivity (PSR sort gate)": "high polyreactivity"},
      {"sequence": "QVQLVESGRVLVQAGGSLRLSCAASGITFISYAMGWYRPAPGKQSELVAVISKSGGRTYYADSVKGSFTISRDNANNTVYLQMNSLKPEDTAVYYCAADVYLSRYEKYGYWGQGTQVTVSS", "polyreactivity (PSR sort gate)": "high polyreactivity"},
      {"sequence": "QVQLVESGVALVQAAGSLRLSCAASGSTFGYYTMGWYRQAPGKERELVAAISWSGGSTYYADSVKGRFTISRDHAKTTVYLQMNSLKPEDTAVYFCAAKTNRGSYSYEYWGQGTQVTVSS", "polyreactivity (PSR sort gate)": "high polyreactivity"},
      {"sequence": "QVQLVESGVCLVQAGGSLRLSCASSGRILSTYAMGWYRQPPGKERELVAAISSGGSTYYADSVKGRFTISRDNAKHTVDLQMNSLKPEDTAVYYCNARKKRGYSRPAFDYWGQGTQVTVSS", "polyreactivity (PSR sort gate)": "high polyreactivity"},
      {"sequence": "QVQLVESGVGFVQAGGSLRLSCAASGRIFGYYMGWYIQAPGKERELVAGISKRGTRTRYADSVKGRFTISRDNAKNTVFLQMNSLKPEDTAVYYCNADYYVSNMDYWGQGTQVTVSS", "polyreactivity (PSR sort gate)": "high polyreactivity"},
      {"sequence": "QVQLVESGVGIVEAGGSLRLSCAASGRSFTYNAMVWYRQAPGKERELVAAISNTGSTYYADSVKGRFTISRDNAKNSVYLQMNCVKPEDTAVYYCAADRAEFRQDDDPGESNYWGQGTQVTVSS", "polyreactivity (PSR sort gate)": "low polyreactivity"},
      {"sequence": "QVQLVESGVGIVQAGGILRLSCAASGSIFFFYAMGWYRQAPAKERELVAAITSSDGDTYYADSVKGRFTISRDNAKNTVYLEMNSLKPEDTAVYYCAVRSSWYEGDYWGQGTQVTVSS", "polyreactivity (PSR sort gate)": "low polyreactivity"},
      {"sequence": "QVQLVESGVGIVQAGGSLRLSCAASGSTFRAYVMGWYRQAPGKERELVAVISSGGSTKYADSVKGRFTISRDNAKNTDYVQMNSLKPVDTAVYYCAARRASRHRYYPFDYWGQGTQVTVSS", "polyreactivity (PSR sort gate)": "high polyreactivity"},
      {"sequence": "QVQLVESGVGLDQAGGSLRLSCAASGSIFIINAMGLYRQAPGKERELVARISNGGNTYADSVKGRFTISRDNAKNTVYLQMKSLKPEDTAVYYCAARAYARRPKYVPKFDYWGQGTQVTVSS", "polyreactivity (PSR sort gate)": "high polyreactivity"},
      {"sequence": "QVQLVESGVGLFQAGGSLRLTCAASGSTFYLNDMGWYRQAPAKERELVAAIDWSGGSTYYADSVKGRFTNSRDNAKYYGYLQMNSLTPEDTAVYYCAARLFYEWRRLDYFIAWDYWGHGTQVTVSS", "polyreactivity (PSR sort gate)": "low polyreactivity"},
      {"sequence": "QVQLVESGVGLVKAGVSLRLSSDASARIFPHYAMGWYRQAPGKERELFAPINVDGGRTYYPDSVKGRFTISRDNAKNTVYLQLNILKPEDTAVYYCAAKPFLYHDQDYGYAVEFNYWGQGTQVTVSS", "polyreactivity (PSR sort gate)": "low polyreactivity"},
      {"sequence": "QVQLVESGVGLVQAAGSLRLSCASSGIICGEYAMGWYRQAPGNERELVAAISGSGSRTYYADSVKVRFTISRDIAKNTVFLQMNRLKPEDTAVYYCNSRRYIYNYDYWGQGTQVTVSS", "polyreactivity (PSR sort gate)": "high polyreactivity"},
      {"sequence": "QVQLVESGVGLVQAGGILRLSCAASGRIFNGYALGWYRQAPGKERELVAVITWNGGSTYYADSVKGRFTISRDNAKNTVYLQMNSLKPEETAVYYCADRRTGYYGTRDYWGQVTQVTVSS", "polyreactivity (PSR sort gate)": "high polyreactivity"},
      {"sequence": "QVQLVESGVGLVQAGGILRLSCAASGRIFYKNAMVWYRQAPGKERELVATITYSDGTTYYADSLKGRFTISRDNAKNTVYLQMNSLKPEDTAVYYCAAQTDSVESDYWGQGTQVTVSS", "polyreactivity (PSR sort gate)": "low polyreactivity"},
      {"sequence": "QVQLVESGVGLVQAGGILRLSCAASGSSFRGYAMGWYRQAPGKERELVAAISSRGARTHYADSVKGRFTISRDNAKNTVYLQMNRLKPEDTAVYYCNKRQVFVSTGEYEFDYWGQGTQVTVSS", "polyreactivity (PSR sort gate)": "low polyreactivity"},
      {"sequence": "QVQLVESGVGLVQAGGRLRLICAASGSTYDSAMGWYIQAPGKERELVASISWSDSSTYYADSVKGRFTISPDNAKNTVYLQMTSLKPEDSAVYYCNAEQGTRDSDYWGQGTQVTVSS", "polyreactivity (PSR sort gate)": "low polyreactivity"},
      {"sequence": "QVQLVESGVGLVQAGGRLRLSCAASGLTLHRYTMGWYRQAPGKERELVAVITYGGGNTYYADSVKGRFTISRDNAKNTVYLQLNCLKPEDTAVYYCAARDPPFYWYDYWGQGTQVTVSS", "polyreactivity (PSR sort gate)": "low polyreactivity"},
      {"sequence": "QVQLVESGVGLVQAGGRLRLSCAASGRIFGSNAMGWYRQAPGKERELVAAITRSGGSTYYADSVKGRFTISRDNAKNTVYLQMNSLKPEDTAVYYCAAVRTQPKYDYCGQGTQVTVSS", "polyreactivity (PSR sort gate)": "high polyreactivity"},
      {"sequence": "QVQLVESGVGLVQAGGRLRLSCAASGSIFYYYAMGWYRQAPGKERELVAAISGTGGSTYYADSVKGRFTISRDNAKITFYLQMNSLKPEDTAVYYCAASFYIERHRYIYWGQGTQVTVSS", "polyreactivity (PSR sort gate)": "high polyreactivity"},
      {"sequence": "QVQLVESGVGLVQAGGSLRLICADSGSIFSQYAMGGYRPAPGKERELVAAISKNGGSTYYADSVKGRFTISRDNAKNTVYSQMNSLKPEDTAVYYCAARVLKGYYWGQGTQVTVSS", "polyreactivity (PSR sort gate)": "high polyreactivity"},
      {"sequence": "QVQLVESGVGLVQAGGSLRLSCAASGFIFGVTTMGWYRLAPGKERELVAAISTLASSTFDADSVKGRFTISRDNAKNTVYLQMNSLKPEDTAVYYCAVDLNWFFSFGLDYWGQGTQLTVSS", "polyreactivity (PSR sort gate)": "low polyreactivity"}
    ]}
  ]
}
